# Data as given in the supplement of paper PMC10567573.
# B1: GFOD1 (parent)
# chain: EEAEELAKEMSVPFYTSRIDEVLL
# Variants of: B1
# Assay: protein stability index of a GFP-peptide fusion (GPS, HEK-293T) (PSI 1-6); higher = more stable
# Settings: c terminus: a fixed tail appended
# 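Note: lentivirally expressed fusions sorted by FACS into six bins by GFP to DsRed ratio, PSI derived from sequencing read proportions per bin multiplied by bin number.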
row,Variant,protein stability index
1,EEAEELAKEMSVPFYTSRGDEVLL,4.48
2,EEAEELAKEMSVPFYTSRMDEVLL,3.2
3,EEAEELAKEMSVPFYTSRADEVLL,4.54
4,EEAEELAKEMSVPFYTSRPDEVLL,4.48
5,EEAEELAKEMSVPFYTSRDDEVLL,5.04
6,EEAEELAREMSVPFYTSRIDEVLL,4.04
7,EEAEELANEMSVPFYTSRIDEVLL,3.39
8,EEAEELAFEMSVPFYTSRIDEVLL,2.25
9,EEAEELAYEMSVPFYTSRIDEVLL,2.86
10,EEAEELAIEMSVPFYTSRIDEVLL,2.76
11,EEAEELACEMSVPFYTSRIDEVLL,2.9
12,EEAEELAMEMSVPFYTSRIDEVLL,3.29
13,EEAEELAKRMSVPFYTSRIDEVLL,2.7
14,EEAEELAKYMSVPFYTSRIDEVLL,2.94
15,EEAEELAKIMSVPFYTSRIDEVLL,2.15
16,EEAEELAKSMSVPFYTSRIDEVLL,2.92
17,EEAEELAKLMSVPFYTSRIDEVLL,2.16
18,EEAEELAKMMSVPFYTSRIDEVLL,3.03
19,EEAEELAKEMSVPFTTSRIDEVLL,4.91
20,EEAEELAKEMSVPFPTSRIDEVLL,5
21,EEAEELAKEMSVPFHTSRIDEVLL,4.77
22,EEAEELAKEMSVPFSTSRIDEVLL,5.01
23,EEAEELAKEMSVPFRTSRIDEVLL,4.2
24,EEAEELAKEMSVPFWTSRIDEVLL,3.1

row,Variant,protein stability index
1,EEAEELAKEMSVPFITSRIDEVLL,3.62
2,EEAEELAKEMSVPFKTSRIDEVLL,4.41
3,EEAEELAKEMSVPFYASRIDEVLL,4
4,EEAEELAKEMSVPFYQSRIDEVLL,4.17
5,EEAEELAKEMSVPFYSSRIDEVLL,3.27
6,EEAEELAKEMSVPFYHSRIDEVLL,3.93
7,EEAEELAKEMSVPFYGSRIDEVLL,3.78
8,EEAEELAKEMSVPFYKSRIDEVLL,3.7
9,EEAEELAKEMSVPFYRSRIDEVLL,3.27
10,EEAEELAKEMSVPFYPSRIDEVLL,3.65
11,EEAEELAKEMSVPFYLSRIDEVLL,2.75
12,EEAEELAKEMSVPFYDSRIDEVLL,4.33
13,EEAEEPAKEMSVPFYTSRIDEVLL,4.26
14,EEAEENAKEMSVPFYTSRIDEVLL,4.51
15,EEAEEAAKEMSVPFYTSRIDEVLL,4.38
16,EEAEEVAKEMSVPFYTSRIDEVLL,3.94
17,EEAEEDAKEMSVPFYTSRIDEVLL,4.99
18,EEAEECAKEMSVPFYTSRIDEVLL,4.38
19,EEAEERAKEMSVPFYTSRIDEVLL,4.2
20,EEAEEIAKEMSVPFYTSRIDEVLL,3.73
21,EEAEEMAKEMSVPFYTSRIDEVLL,4.01
22,EEAEELAKEMSVPPYTSRIDEVLL,4.85
23,EEAEELAKEMSVPDYTSRIDEVLL,4.9
24,EEAEELAKEMSVPVYTSRIDEVLL,3.86

row,Variant,protein stability index
1,EEAEELAKEMSVPQYTSRIDEVLL,5
2,EEAEELAKEMSVPRYTSRIDEVLL,4.22
3,EEAEELAKEMSVPIYTSRIDEVLL,4.05
4,EEAEELAKEMSVPSYTSRIDEVLL,4.37
5,EEAEELAKEMSVDFYTSRIDEVLL,3.96
6,EEAEELAKEMSVLFYTSRIDEVLL,2.57
7,EEAEELAKEMSVRFYTSRIDEVLL,4.11
8,EEAEELAKEMSVHFYTSRIDEVLL,2.54
9,EEAEELAKEMSVGFYTSRIDEVLL,4.02
10,EEAEELAKEMSVIFYTSRIDEVLL,2.03
11,EEAEELAKEMSVNFYTSRIDEVLL,3.78
12,EEAEELAKEMSVTFYTSRIDEVLL,4.03
13,EEAEELAKEMSVWFYTSRIDEVLL,1.97
14,EEALELAKEMSVPFYTSRIDEVLL,2.9
15,EEAMELAKEMSVPFYTSRIDEVLL,4
16,EEATELAKEMSVPFYTSRIDEVLL,3.86
17,EEANELAKEMSVPFYTSRIDEVLL,3.92
18,EEAFELAKEMSVPFYTSRIDEVLL,2.98
19,EEASELAKEMSVPFYTSRIDEVLL,3.93
20,EEAKELAKEMSVPFYTSRIDEVLL,3.46
21,EEAGELAKEMSVPFYTSRIDEVLL,3.4
22,EEAPELAKEMSVPFYTSRIDEVLL,3.6
23,EEAYELAKEMSVPFYTSRIDEVLL,2.64
24,EEAWELAKEMSVPFYTSRIDEVLL,2.77

row,Variant,protein stability index
1,EENEELAKEMSVPFYTSRIDEVLL,4.03
2,EECEELAKEMSVPFYTSRIDEVLL,2.56
3,EEVEELAKEMSVPFYTSRIDEVLL,3.32
4,EEAEALAKEMSVPFYTSRIDEVLL,3.45
5,EEAEWLAKEMSVPFYTSRIDEVLL,2.35
6,EEAEMLAKEMSVPFYTSRIDEVLL,2.95
7,EEAEDLAKEMSVPFYTSRIDEVLL,3.93
8,EEAESLAKEMSVPFYTSRIDEVLL,3.13
9,EEAEHLAKEMSVPFYTSRIDEVLL,3.6
10,EEAELLAKEMSVPFYTSRIDEVLL,4.05
11,EEAEPLAKEMSVPFYTSRIDEVLL,3.96
12,EEAEFLAKEMSVPFYTSRIDEVLL,2.94
13,EEAETLAKEMSVPFYTSRIDEVLL,3.48
14,EEAEELWKEMSVPFYTSRIDEVLL,2.39
15,EEAEELDKEMSVPFYTSRIDEVLL,4.62
16,EEAEELHKEMSVPFYTSRIDEVLL,4.2
17,EEAEELYKEMSVPFYTSRIDEVLL,3.07
18,EEAEELTKEMSVPFYTSRIDEVLL,3.79
19,EEAEELSKEMSVPFYTSRIDEVLL,3.6
20,EEAEELGKEMSVPFYTSRIDEVLL,4
21,EEAEELFKEMSVPFYTSRIDEVLL,2.99
22,EEAEELQKEMSVPFYTSRIDEVLL,4.06
